# ± gives the uncertainty stated by the source.
# Assay: self-splicing fitness, log relative to wild type (ln ratio); higher = more splicing; Tetrahymena group I intron in knt gene, E. coli kanamycin selection, DiMSum; sequences stand for … in CUCUCU…GGAGGGAAAAGUUAUCAGGCAUGCACCUGGUAGCUAGUCUUUAAACCAAUAGAUUGCAUCGGUUUAAAAGGCAAGACCGUCAAAUUGCGGGAAAGGGGUCAACAGCCGUUCAGUACCAAGUCUCAGGGGAAACUUUGAGAUGGCCUUGCAAAGGGUAUGGUAAUAAGCUGACGGACAUGGUCCUAACCACGCAGCCAAGUCCUAAGUCAACAGAUCUUCUGUUGAUAUGGAUGCAGUUCACAGACUAAAUGUCGGUCGGGGAAGAUGUAUUCUUCUCAUAAGAUAUAGUCGGACCUCUCCUUAAUGGGAGCUAGCGGAUGAAGUGAUGCAACACUGGAGCCGCUGGGAACUAAUUUGUAUGCGAAAGUAUAUUGAUUAGUUUUGGAGUACUCGUGGUCG
# In short: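 Pooled colonies went to amplicon sequencing on an Illumina HiSeq 2500 after six replicate transformations. The plates were LB agar with 100 μg/mL carbenicillin, 50 μM IPTG and 0.2% rhamnose, with or without 25 μg/mL kanamycin, incubated overnight at 37°C or 30°C. The E. coli BL21(DE3) library had all eight P1ex-region intron nucleotides randomised, the intron placed in the knt kanamycin-resistance gene on pET-22b(+). DiMSum fitness is the error-weighted combination of replicate fold changes, kanamycin against none, normalised to wild type.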
Sequence,self-splicing fitness (ln) (30 °C),self-splicing fitness (ln) (37 °C)
UUCCAGCAAUAUUACGAGAU,-3.68 ± 0.43,-0.948 ± 0.19
AUCUAGCAAUAUUACGGUUU,-1.13 ± 0.13,-0.53 ± 0.13
GAAUAGCAAUAUUACGUAUA,-2.32 ± 0.15,-1.54 ± 0.15
AAUUAGCAAUAUUACGGGGA,-2.98 ± 0.27,-2.07 ± 0.26
CAUGAGCAAUAUUACGGGAC,-2.99 ± 0.18,-1.95 ± 0.24
UUGUAGCAAUAUUACGUAAG,-2.25 ± 0.17,-1.02 ± 0.16
AAUGAGCAAUAUUACGAUAA,-3.11 ± 0.17,-2.51 ± 0.2
GUCAAGCAAUAUUACGCUCG,-2.95 ± 0.14,-1.18 ± 0.12
UACAAGCAAUAUUACGCCUA,0.14 ± 0.067,-0.0341 ± 0.071
GAGAAGCAAUAUUACGUGAA,-1 ± 0.1,-1.23 ± 0.17
CGUGAGCAAUAUUACGCCUC,-2.12 ± 0.31,-1.07 ± 0.4
AUCAAGCAAUAUUACGGUAC,-3.8 ± 0.23,-0.246 ± 0.12
UGCCAGCAAUAUUACGGAGC,-3.73 ± 0.4,-3.1 ± 0.35
AAAUAGCAAUAUUACGGGAA,-3.24 ± 0.28,-1.34 ± 0.19
CGAGAGCAAUAUUACGAAUU,-2.77 ± 0.29,–
GCAUAGCAAUAUUACGGGAC,-2.49 ± 0.17,-0.217 ± 0.14
AUGAAGCAAUAUUACGUGCC,-0.735 ± 0.12,-0.196 ± 0.11
GCAUAGCAAUAUUACGUUUA,-2.47 ± 0.16,-1.61 ± 0.12
AGGUAGCAAUAUUACGUUUA,-2.151 ± 0.019,-1.33 ± 0.034
GGAUAGCAAUAUUACGGUUA,-0.755 ± 0.2,0.0186 ± 0.17
UCGAAGCAAUAUUACGCUGC,-3.55 ± 0.43,-1.49 ± 0.4
GCUUAGCAAUAUUACGGACC,-1.17 ± 0.17,0.79 ± 0.22
GCUUAGCAAUAUUACGCUCC,-0.928 ± 0.15,-1.09 ± 0.26
AUGAAGCAAUAUUACGUGCU,-1.69 ± 0.12,-1.39 ± 0.12
UAAUAGCAAUAUUACGCCAG,-1.07 ± 0.2,-1.2 ± 0.32

Sequence,self-splicing fitness (ln) (30 °C),self-splicing fitness (ln) (37 °C)
GACCAGCAAUAUUACGGCAU,0.00655 ± 0.046,0.553 ± 0.068
GGGGAGCAAUAUUACGAUUC,-1.52 ± 0.16,-0.791 ± 0.2
UCUUAGCAAUAUUACGCAAA,-1.56 ± 0.32,-2.31 ± 0.29
CGACAGCAAUAUUACGUACU,-1.26 ± 0.082,-0.578 ± 0.089
GGCUAGCAAUAUUACGAUCA,-0.733 ± 0.093,-0.246 ± 0.088
UGCAAGCAAUAUUACGGCCU,-0.521 ± 0.059,-0.286 ± 0.079
AGCUAGCAAUAUUACGGCCU,-0.139 ± 0.073,-0.106 ± 0.091
AAUGAGCAAUAUUACGGACC,–,-1.08 ± 0.44
GCAUAGCAAUAUUACGACUG,-1.68 ± 0.12,-0.65 ± 0.16
UUCGAGCAAUAUUACGCACC,-3.33 ± 0.29,-1.91 ± 0.24
CUAAAGCAAUAUUACGUGUG,-0.323 ± 0.049,0.387 ± 0.06
GCAGAGCAAUAUUACGUAGC,-3.31 ± 0.25,-2.77 ± 0.22
CCUGAGCAAUAUUACGACUC,-1.44 ± 0.36,-1.6 ± 0.49
CGCAAGCAAUAUUACGGAGU,-3.16 ± 0.2,-1.68 ± 0.18
CAACAGCAAUAUUACGAGGU,-4.43 ± 0.29,-2.24 ± 0.17
UAUCAGCAAUAUUACGUAGC,-2.63 ± 0.16,-1.42 ± 0.2
GCGGAGCAAUAUUACGAAGC,-2.45 ± 0.23,-2.13 ± 0.4
GCAGAGCAAUAUUACGAACC,-1.87 ± 0.32,-1.24 ± 0.33
CGAAAGCAAUAUUACGAGUA,-3.07 ± 0.19,-2.36 ± 0.18
UCACAGCAAUAUUACGAACA,-1.58 ± 0.1,-1.64 ± 0.11
CUGCAGCAAUAUUACGAUGG,-1.7 ± 0.08,-1.18 ± 0.1
AGAGAGCAAUAUUACGUCAU,–,-1.01 ± 0.16
UCUUAGCAAUAUUACGGAAC,-0.987 ± 0.34,-1.99 ± 0.43
UGUUAGCAAUAUUACGUAUG,-0.871 ± 0.13,-0.234 ± 0.17
UAGGAGCAAUAUUACGCUUA,-1.49 ± 0.18,-0.834 ± 0.27

Sequence,self-splicing fitness (ln) (30 °C),self-splicing fitness (ln) (37 °C)
GAGCAGCAAUAUUACGCUGA,-2.8 ± 0.19,-2.13 ± 0.2
UCCAAGCAAUAUUACGGUUU,-3.75 ± 0.2,-2.48 ± 0.21
GUUGAGCAAUAUUACGCAUU,-2.68 ± 0.2,-2.45 ± 0.33
UUACAGCAAUAUUACGCCAA,-1.35 ± 0.17,-1.01 ± 0.17
AAUUAGCAAUAUUACGCGGU,-3.63 ± 0.21,-1.55 ± 0.21
CACGAGCAAUAUUACGGACU,-3.12 ± 0.22,-1.44 ± 0.25
UUUCAGCAAUAUUACGCGCC,-1.72 ± 0.24,-0.992 ± 0.37
CCGCAGCAAUAUUACGGCAU,-3.29 ± 0.2,-2.38 ± 0.17
AAAAAGCAAUAUUACGGUGC,-3.45 ± 0.099,-2.25 ± 0.081
GAUCAGCAAUAUUACGACUC,-0.0915 ± 0.14,-0.146 ± 0.15
CGAAAGCAAUAUUACGGUCA,-0.303 ± 0.12,-0.586 ± 0.14
UGUCAGCAAUAUUACGCUCA,0.0629 ± 0.11,-0.236 ± 0.11
CGACAGCAAUAUUACGUGCG,-4.12 ± 0.17,-2.5 ± 0.19
GCCAAGCAAUAUUACGAGCA,-1.82 ± 0.14,-1.11 ± 0.15
ACUUAGCAAUAUUACGGAGC,-3.46 ± 0.3,-0.469 ± 0.18
GAACAGCAAUAUUACGCGGA,-1.94 ± 0.082,-0.737 ± 0.075
CAUAAGCAAUAUUACGAGAG,-2.88 ± 0.18,-1.32 ± 0.14
UAACAGCAAUAUUACGUUGG,-1.67 ± 0.083,-0.828 ± 0.096
CAAAAGCAAUAUUACGAUAG,-0.0755 ± 0.065,0.3 ± 0.083
CCGUAGCAAUAUUACGUCUG,-0.102 ± 0.054,0.303 ± 0.067
CGAUAGCAAUAUUACGGGGG,-3.7 ± 0.3,-1.49 ± 0.16
GUCGAGCAAUAUUACGGACU,-3.29 ± 0.47,-1.73 ± 0.24
CCCUAGCAAUAUUACGCAGC,-3 ± 0.17,-3.24 ± 0.35
GUGUAGCAAUAUUACGUACG,-2.64 ± 0.23,-1.14 ± 0.16
CGUUAGCAAUAUUACGAGCU,-1.25 ± 0.064,-0.739 ± 0.082

# From the supplement of paper PMC7877785
